Data on three substances can be found in patent US20140106371A1.

A value given as a limit tells only on which side of the number the result lay.

Test [1] addresses asialotransferrin (human) (UniProt P02787). Put plainly: qualitative ELLA, lectin 2 µg/mL.
Test [2] addresses Gal-α1,3-Gal-BSA glycoconjugate (UniProt P02769). Description: ELLA lectin dose response.

asialotransferrin (human), sequence (P02787 20-698 limits assumed): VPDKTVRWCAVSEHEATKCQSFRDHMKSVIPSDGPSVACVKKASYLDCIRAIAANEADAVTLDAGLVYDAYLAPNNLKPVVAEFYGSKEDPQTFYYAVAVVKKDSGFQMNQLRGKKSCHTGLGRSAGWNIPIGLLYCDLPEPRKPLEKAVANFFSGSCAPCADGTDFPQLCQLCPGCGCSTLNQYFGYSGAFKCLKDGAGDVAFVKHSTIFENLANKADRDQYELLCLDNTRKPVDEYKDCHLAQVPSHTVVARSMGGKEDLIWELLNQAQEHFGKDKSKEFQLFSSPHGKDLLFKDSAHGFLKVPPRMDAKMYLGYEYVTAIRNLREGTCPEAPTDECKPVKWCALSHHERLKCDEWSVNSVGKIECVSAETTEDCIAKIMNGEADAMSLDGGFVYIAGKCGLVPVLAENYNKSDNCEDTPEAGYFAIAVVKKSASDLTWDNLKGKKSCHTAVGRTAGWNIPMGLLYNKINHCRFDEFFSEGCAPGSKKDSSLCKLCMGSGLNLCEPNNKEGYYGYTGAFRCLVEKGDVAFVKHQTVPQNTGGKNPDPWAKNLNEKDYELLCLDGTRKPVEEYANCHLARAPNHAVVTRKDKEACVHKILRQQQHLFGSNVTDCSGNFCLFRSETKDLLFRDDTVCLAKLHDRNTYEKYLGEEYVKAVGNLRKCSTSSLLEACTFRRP
Gal-α1,3-Gal-BSA glycoconjugate, sequence (P02769 25-607 limits assumed): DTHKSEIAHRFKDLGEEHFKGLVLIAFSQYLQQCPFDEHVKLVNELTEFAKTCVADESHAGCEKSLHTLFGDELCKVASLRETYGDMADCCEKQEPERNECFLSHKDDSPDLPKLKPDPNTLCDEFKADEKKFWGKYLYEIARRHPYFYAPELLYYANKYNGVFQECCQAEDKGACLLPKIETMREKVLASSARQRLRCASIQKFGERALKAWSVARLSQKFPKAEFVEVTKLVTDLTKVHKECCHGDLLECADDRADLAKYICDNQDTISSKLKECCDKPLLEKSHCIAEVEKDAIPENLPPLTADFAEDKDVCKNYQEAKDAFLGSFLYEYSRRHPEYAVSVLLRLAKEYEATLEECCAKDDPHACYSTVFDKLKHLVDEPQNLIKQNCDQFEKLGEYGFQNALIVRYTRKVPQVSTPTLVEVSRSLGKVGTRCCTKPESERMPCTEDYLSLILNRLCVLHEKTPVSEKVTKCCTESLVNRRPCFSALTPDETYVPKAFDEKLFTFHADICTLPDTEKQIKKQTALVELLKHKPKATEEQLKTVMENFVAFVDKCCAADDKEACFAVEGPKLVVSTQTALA

In turn, “H50N (rPA-ILNm protein) (from UniProt Q05097 1-122)” yielded an ELLA signal relative to rPA-ILNmE6 in test [1] of 0.5 fold. On the same count and under the same terms, in the case of H50N:Q53G (from UniProt Q05097 1-122) it was < 0.5 fold.

For the substance “rPA-ILN (recombinant wild type PA-IL with an N-terminal RGS-6HIS affinity tag) (from UniProt Q05097 1-122)”, the lectin concentration at which the ELLA signal reached saturation in test [2] is > 1.25 µg/mL.
